Holding throughout (format): cell-based, Narcissus aff. pseudonarcissus MK-2014
What all share (conditions): heme

Substrate in series [1]: COc1ccc(CN(C)CCc2ccc(O)cc2)cc1O
The series is described as follows: LC-MS/MS enzyme kinetics with Sf9-expressed CYP96T1; CPR-only negative control.

Substrate in series [2]: COc1ccc(CNCCc2ccc(O)cc2)cc1O
Described as above.

Substrate in series [3]: COc1cc2c(cc1O)[C@H](Cc1ccc(O)cc1)NCC2
The series is described as follows: LC-MS/MS enzyme kinetics with Sf9-expressed CYP96T1.

Substrate in series [4]: COc1cc2c(cc1O)[C@@H](Cc1ccc(O)cc1)NCC2
The description is as above.

B1: CYP96T1 (Narcissus aff. pseudonarcissus MK-2014) (protein)
chain: MATSSSAWLMFSDHYPEILIAIACFLIFSLLLSARSSSEDSLPYNWPIFGMLPAIISNNQFNDFTTARLRKMGWTFIFKGPWLLDMDYIFTCDPSNINHMFNDNFENYPKGELGKVFDIFGNNIFNADGDLWHDHRKMAQTILWDGNYRTMQATFIRNKMDNALIPILDSAASKRKPVDLQDVFFRFTFDTSCFSVLAADPESLTMEFPAVPFSKAADQALDAALTRHITPRLIWKLKRFFNVGSERTLAVAWKVIDSYIYDKIAELKAKRKLVGKINSYDAVSFYMDNFNIHDDKFLRDNAFTYLLAQRNTQSLTMTWLFYALFENPKVELKILSELKSIVDESSERKFNDGFALFDSNMIQSAIYLHATLCEALRIYPPVPFEIKDAHKADVLPSGHKVRAGEKILFSPYAMARMKGIWGDDCLEFKPERWITGNGTLKHEPAYKFFAFSAGPRICLGKELSFTQMKMVVATIIYNFHLQMVKGHVVEQSNSILMDMKHGLMVQVRKRSVM
notes: CYP96T1 ORF (GenBank KT693311) expressed in Sf9 cells, co-expressed with Eschscholzia californica CPR
Consider B1, for which the Km – broadly, the substrate concentration at which the rate is half of its maximum – in series [1] came to 3.28 ± 2.27 µM; in series [2], 1.13 ± 0.54 µM; in series [3] it was 637 ± 156 µM; in series [4], 659 ± 104 µM. The kcat (in general, the maximal rate divided by the concentration of active sites) in series [1] is 0.0407 ± 0.009 s⁻¹; in series [2], 0.25 ± 0.0338 s⁻¹; in series [3], 0.0223 ± 0.0025 s⁻¹; in series [4], 0.0345 ± 0.00233 s⁻¹. In addition, the kcat/Km (in general, the turnover number divided by the Michaelis constant) was determined as 12400 M⁻¹ s⁻¹ in series [1], 217000 M⁻¹ s⁻¹ in series [2], 35.2 M⁻¹ s⁻¹ in series [3] and 52.5 M⁻¹ s⁻¹ in series [4].

The values above are taken from paper PMC4766306, “CYP96T1 of Narcissus sp. aff. pseudonarcissus Catalyzes Formation of the Para-Para' C-C Phenol Couple in the Amaryllidaceae Alkaloids” (Frontiers in Plant Science, 2016).
